Assay results taken from the supplement of paper PMC9170038.

How the values were obtained:
MS2 coat protein [1] = experiment: apparent KD of MS2 coat protein, switch ON state; designed switch direction (-1 OFF switch, 1 ON switch): 1; higher = weaker reporter binding; details: FMN input: 0 or 200 uM; Eterna round: R93 (includes R88 designs)
How it was run: (§1)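 Titrations with SNAP-549-labelled MS2 coat protein ran in twofold steps from 0.7 or 1.5 nM to 3 µM, each step taking 0.8–1.5 h at the start and 10–20 min toward the end. The targets were designed RNA switches transcribed on-chip from Illumina sequencing clusters, held in 100 mM Tris-HCl pH 7.5, 80 mM KCl, 4 mM MgCl2, without or with constant ligand. Apparent KD was taken per design as the median of normalised cluster binding-curve fits.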

MS2 coat protein [2] = experiment: apparent KD of MS2 coat protein, switch OFF state (with FMN for OFF switches, without FMN for ON switches); designed switch direction (-1 OFF switch, 1 ON switch): 1; higher = weaker reporter binding; details: FMN input: 0 or 200 uM; Eterna round: R93 (includes R88 designs)
How it was run: as §1

Sequence: AAAUAAAGAUACUAGGAUAUCCCGUGAGGUACAUGAGGAUCACCCAUGUGUAACGAACUCCCGCGGGAGAAGGAGUUGCACACGA [Inanuserra]
- apparent KD of MS2 coat protein (MS2 coat protein [1]): 38 nM
- apparent KD of MS2 coat protein (MS2 coat protein [2]): 52.4 nM

Sequence: AAAUAAAGGACUGAGGAUAUACCACAUGAAACAUGAGGAUCACCCAUGUUGAAAAACAGAGGGUGGUAGAAGGCAGUCCACAAAC [Same State 2.5d ( so lets mod hyphema)]
- apparent KD of MS2 coat protein (MS2 coat protein [1]): 12.5 nM
- apparent KD of MS2 coat protein (MS2 coat protein [2]): 23.3 nM

Sequence: AAAUAAAUGACUAAGGAUAUAUCAAAAGAAACAUGAGGAUCACCCAUGUAAUAAUAAAAAGGGUGAUAGAAGGUAGUCAACAAAC [74%, More Paria 4]
- apparent KD of MS2 coat protein (MS2 coat protein [1]): 24.6 nM
- apparent KD of MS2 coat protein (MS2 coat protein [2]): 115 nM

Sequence: AAAUAAAUGACUGAGGAUAUAUCGAUGAGUACAUGAGGAUCACCCAUGUGAUAAUAAAAAGGGUGGUAGAAGGUAGUCAACAAAC [Mod 14 of Pariah 4 by Hyphema in Round 1]
- apparent KD of MS2 coat protein (MS2 coat protein [1]): 185 nM
- apparent KD of MS2 coat protein (MS2 coat protein [2]): 150 nM

Sequence: AAAUAACAUGAGGAUCACCCAUGUUACGACGUUACAGGAUAUGUGGGUGAAAAUAGCAUGACAGAAGGGUACCGUA [SameState1 Malc#37]
- apparent KD of MS2 coat protein (MS2 coat protein [1]): 68.5 nM
- apparent KD of MS2 coat protein (MS2 coat protein [2]): 60.3 nM

Sequence: AACAAUCUAUCUGAGGAUAUCAUGACAAAGACAUGAGGAUCACCCAUGUCCAGGAAAACUGGUUAUGAGAAGGCAGAUAGAUUGA [SS2: 1112]
- apparent KD of MS2 coat protein (MS2 coat protein [1]): 9.7 nM
- apparent KD of MS2 coat protein (MS2 coat protein [2]): 13.2 nM

Sequence: AACAAUCUAUCUGAGGAUAUCAUGUCAAAGACAUGAGGAUCACCCAUGUGUAGGAAAACUACAUAUGAGAAGGCAGAUAGAUUGA [SS2 :P - 598]
- apparent KD of MS2 coat protein (MS2 coat protein [1]): 610 nM
- apparent KD of MS2 coat protein (MS2 coat protein [2]): 103 nM

Sequence: AACAAUCUAUCUGAGGAUAUCAUGUGAAAGACAUGAGGAUCACCCAUGUUGCAGGAAACUGCUCAUGAGAAGGCAGAUAGAUUGA [SS2: 1126]
- apparent KD of MS2 coat protein (MS2 coat protein [1]): 11.5 nM
- apparent KD of MS2 coat protein (MS2 coat protein [2]): 28.3 nM

Sequence: AACAGGAAGAGAGAGGAUAUCCAAAGGAAAACAUGAGGAUCACCCAUGUAAAAGGUAGGAAAUUGGGAGAAGGCUCAAGAGAGAG [salish99-ss2-089]
- apparent KD of MS2 coat protein (MS2 coat protein [1]): 24.8 nM
- apparent KD of MS2 coat protein (MS2 coat protein [2]): 47.3 nM

Sequence: AAGAAACAUGAGGAUCACCCAUGUAAGAUAAACACAGGAUAUGCGAAAAGAAACAAAUAAGCAGAAGGGUGAAGAA [Mat - Same State 1 - Tesla mod - 64]
- apparent KD of MS2 coat protein (MS2 coat protein [1]): 16.3 nM
- apparent KD of MS2 coat protein (MS2 coat protein [2]): 23 nM

Sequence: AAGAAACAUGAGGAUCACCCAUGUAAGAUAAACACAGGAUAUGCGAAAAUAAACAAAUAAGCAGAAGGGUGAAAAG [Mat - Same State 1 - Tesla mod - 76]
- apparent KD of MS2 coat protein (MS2 coat protein [1]): 15.2 nM
- apparent KD of MS2 coat protein (MS2 coat protein [2]): 19.3 nM

Sequence: AAGAAACAUGAGGAUCACCCAUGUAGAAAUAUGGGAGGAUAUACAAAGACGAAAGUCAAAGUAGAAGGCCUGAAAG [Mat - Same State 1 - Eli mod - 84]
- apparent KD of MS2 coat protein (MS2 coat protein [1]): 38.5 nM
- apparent KD of MS2 coat protein (MS2 coat protein [2]): 72.4 nM

Sequence: AAGAAACAUGAGGAUCACCCAUGUGAUAAUAUGGGAGGAUAUACAAAGACGAAAGACGAAGUAGAAGGCCUAUGAA [Garnet 44]
- apparent KD of MS2 coat protein (MS2 coat protein [1]): 49 nM
- apparent KD of MS2 coat protein (MS2 coat protein [2]): 124 nM

Sequence: AAGAAACAUGAGGAUCACCCAUGUGAUAAUAUGGGAGGAUAUACGAAGACGAAAGACGAAGUAGAAGGCCUAUGAA [Garnet 45]
- apparent KD of MS2 coat protein (MS2 coat protein [1]): 46.9 nM
- apparent KD of MS2 coat protein (MS2 coat protein [2]): 83.3 nM

Sequence: AAUAACAAAAGAAAGGAUAUAUAAACAGGAACAUGAGGAUCACCCAUGUGCCGCCAAGGCGGAUAAUAGAAGGUUCACAUGCAUA [Default title]
- apparent KD of MS2 coat protein (MS2 coat protein [1]): 47 nM
- apparent KD of MS2 coat protein (MS2 coat protein [2]): 25.3 nM

Sequence: AAUAAUUAUACGAAGGAUAUCGGUAUUAAGACAUGAGGAUCACCCAUGUAAUAUGGUUAUAUAAACGAGAAGGUCGAGGGUGAAA [JR_SS002_Sub008]
- apparent KD of MS2 coat protein (MS2 coat protein [1]): 38.6 nM
- apparent KD of MS2 coat protein (MS2 coat protein [2]): 36.9 nM

Sequence: AAUAAUUAUAUGGAGGAUAUCGGUAAUAAGACAUGAGGAUCACCCAUGUAAUAAGGUUAAAUAAACGAGAAGGCCAAGGGUGAAA [JR_SS002_Sub005]
- apparent KD of MS2 coat protein (MS2 coat protein [1]): 59.7 nM
- apparent KD of MS2 coat protein (MS2 coat protein [2]): 234 nM

Sequence: AAUAGACAUGAGGAUCACCCAUGUGUAUAUGGGAGAGGAUAUACGGGACACAAGGGCGGAGUAGAAGGCUCGAGAC [Same Satate 1]
- apparent KD of MS2 coat protein (MS2 coat protein [1]): 68.2 nM
- apparent KD of MS2 coat protein (MS2 coat protein [2]): 83.9 nM

Sequence: AAUAUACAUGAGGAUCACCCAUGUUAGGUGGGACUAGGAUAUCAAAAGAAAGAGUAAGAAUGAGAAGGAGUAGAAA [JR_SS001_Sub016]
- apparent KD of MS2 coat protein (MS2 coat protein [1]): 145 nM
- apparent KD of MS2 coat protein (MS2 coat protein [2]): 240 nM

Sequence: AAUAUACAUGAGGAUCACCCAUGUUUUAAUAGCUGAGGAUAUACGGGUGAAAACAGCAUAGUAGAAGGCAGGUAUA [SameState1 Malc#7]
- apparent KD of MS2 coat protein (MS2 coat protein [1]): 27.6 nM
- apparent KD of MS2 coat protein (MS2 coat protein [2]): 86.7 nM

Sequence: AAUAUAUUAUUUAAGGAUAUCAUAGGAAAAACAUGAGGAUCACCCAUGUGGGAAACCUGGUCGGGUGAGAAGGUGGAUAAUAUAU [Samwise Clockwise 34 - Jieux - Same State 2]
- apparent KD of MS2 coat protein (MS2 coat protein [1]): 93.7 nM
- apparent KD of MS2 coat protein (MS2 coat protein [2]): 317 nM

Sequence: AGAAAACAUGAGGAUCACCCAUGUAGAAAUAUGGGAGGAUAUACAAAGACGAAAGUCAGAGUAGAAGGCCUAAAAA [salish99-SS1-085]
- apparent KD of MS2 coat protein (MS2 coat protein [1]): 14.6 nM
- apparent KD of MS2 coat protein (MS2 coat protein [2]): 77.3 nM

Sequence: AGAAAACAUGAGGAUCACCCAUGUAGAAAUAUGGGAGGAUAUACGAAGACGAAAGUCAAAGUAGAAGGCCUAAAAG [Mat - Same State 1 - Eli mod - D102]
- apparent KD of MS2 coat protein (MS2 coat protein [1]): 22 nM
- apparent KD of MS2 coat protein (MS2 coat protein [2]): 69.8 nM

Sequence: AGAAAUAAAACGCAGGAUAUCCAAAAGAAAACAUGAGGAUCACCCAUGUAAAAGAAAAUAAAAUGGGAGAAGGGCGAAAUAAAGA [Mat - Same State 2 - Eli mod - D92]
- apparent KD of MS2 coat protein (MS2 coat protein [1]): 19.3 nM
- apparent KD of MS2 coat protein (MS2 coat protein [2]): 20.9 nM

Sequence: AGAAAUAAAAGACAGGAUAUCCUUAAGAAAACAUGAGGAUCACCCAUGUAAAAGAAAAUAAAAAGGGAGAAGGGUCAAAAUAAGA [Mat - Same State 2 - JL mod - D80]
- apparent KD of MS2 coat protein (MS2 coat protein [1]): 18 nM
- apparent KD of MS2 coat protein (MS2 coat protein [2]): 26.2 nM

Sequence: AGAAAUAAAAGAGAGGAUAUCCAAAAGAAAACAUGAGGAUCACCCAUGUAAAAGAAAAUAAAAUGGGAGAAGGCUCAAUAAAAGA [Modifying Jieux]
- apparent KD of MS2 coat protein (MS2 coat protein [1]): 17.9 nM
- apparent KD of MS2 coat protein (MS2 coat protein [2]): 42 nM

Sequence: AGAAAUAAAAGAGAGGAUAUCCAAAAGAAAACAUGAGGAUCACCCAUGUAAAAGAAAAUAAAAUGGGAGAAGGCUCGAAAUAAGA [Topaz 21]
- apparent KD of MS2 coat protein (MS2 coat protein [1]): 18.3 nM
- apparent KD of MS2 coat protein (MS2 coat protein [2]): 107 nM

Sequence: AGAAAUAAAAGAGAGGAUAUCCAAAAGAAAACAUGAGGAUCACCCAUGUAAAAGAAAAUAAAGUGGGAGAAGGCUCAAAAUAAGA [Jieux modified]
- apparent KD of MS2 coat protein (MS2 coat protein [1]): 16.4 nM
- apparent KD of MS2 coat protein (MS2 coat protein [2]): 129 nM

Sequence: AGAAAUAAAAGGCAGGAUAUCCAAAAGAAAACAUGAGGAUCACCCAUGUAAAAGAAAAAAAAAUGGGAGAAGGGCCAAAUAAAGA [Mat - Same State 2 - Eli mod - D90]
- apparent KD of MS2 coat protein (MS2 coat protein [1]): 20.7 nM
- apparent KD of MS2 coat protein (MS2 coat protein [2]): 21.4 nM

Sequence: AGAAAUAAAAGUCAGGAUAUGGGUAAGAAAACAUGAGGAUCACCCAUGUAAAAGAAAAUAAAAAACCAGAAGGGACAAAAUAAAG [Reversing G segment in JL's winner (80%) Variant 4]
- apparent KD of MS2 coat protein (MS2 coat protein [1]): 30.1 nM
- apparent KD of MS2 coat protein (MS2 coat protein [2]): 88.6 nM

Sequence: AGCACGUGAUUGGAGGAUAUGUAGUAAGCAACAUGAGGAUCACCCAUGUCUGAGGCUGAAAAGCAGCAGAAGGCCGAUACAACCA [SS2-1.5]
- apparent KD of MS2 coat protein (MS2 coat protein [1]): 18.2 nM
- apparent KD of MS2 coat protein (MS2 coat protein [2]): 19.2 nM

Sequence: AGGAAACAUGAGGAUCACCCAUGUAAAAAUAUGGGAGGAUAUACAAACAGGAAAGUGAGAGUAGAAGGCCUAAAAG [Garnet 19]
- apparent KD of MS2 coat protein (MS2 coat protein [1]): 42.4 nM
- apparent KD of MS2 coat protein (MS2 coat protein [2]): 231 nM

Sequence: AGGAAACAUGAGGAUCACCCAUGUAAAAAUAUGGGAGGAUAUUGAAAGACGAAAGUCAAACAAGAAGGCCUAAAAG [Garnet 21]
- apparent KD of MS2 coat protein (MS2 coat protein [1]): 24 nM
- apparent KD of MS2 coat protein (MS2 coat protein [2]): 128 nM

Sequence: AGGAGACAUGAGGAUCACCCAUGUGAGAAGAGGCGAGGAUAUCGAAAGAAAGAAGAGAAACGAGAAGGCGCGAGAG [salish99-SS1-025]
- apparent KD of MS2 coat protein (MS2 coat protein [1]): 28.4 nM
- apparent KD of MS2 coat protein (MS2 coat protein [2]): 37.4 nM

Sequence: AUAAAACAUGAGGAUCACCCAUGUAAAAAUAUGGGAGGAUAUACGAAAUAAAAUAAAUACGUAGAAGGCCUAAAAA [SS! MT 20]
- apparent KD of MS2 coat protein (MS2 coat protein [1]): 20.2 nM
- apparent KD of MS2 coat protein (MS2 coat protein [2]): 111 nM

Sequence: AUAAAACAUGAGGAUCACCCAUGUAGAAAUAUGGGAGGAUAUACGAAGACGAAAGUCGAAGUAGAAGGCCUAAAAG [Mat - Same State 1 - Meechl mod - D116]
- apparent KD of MS2 coat protein (MS2 coat protein [1]): 27.7 nM
- apparent KD of MS2 coat protein (MS2 coat protein [2]): 67.7 nM

Sequence: AUAAAACAUGAGGAUCACCCAUGUCCGACAAAUCAAGGAUAUGAGAGCCAAACCAGGCUGUUAGAAGGUGAAAGAA [Edorlebere]
- apparent KD of MS2 coat protein (MS2 coat protein [1]): 154 nM
- apparent KD of MS2 coat protein (MS2 coat protein [2]): 182 nM

Sequence: AUAAAACAUGAGGAUCACCCAUGUCCGACAAAUCAAGGAUAUGAUAGCCAAACCAGGCCGUUAGAAGGUGAAAGAA [Edgeza]
- apparent KD of MS2 coat protein (MS2 coat protein [1]): 276 nM
- apparent KD of MS2 coat protein (MS2 coat protein [2]): 147 nM
